Assay results taken from patent US5262522.

Legend:
[1] = target: Endogenous high affinity simian LIF receptors on COS-7 cells (simian); assay: Scatchard analysis of 125I-LIF binding to COS-7 cells transfected with pHLIFR-65 and CAV, high affinity site (curve B, site 1)
[2] = target: Endogenous high affinity simian LIF receptors on COS-7 cells (simian); assay: Scatchard analysis of 125I-LIF binding to non-transfected COS-7 cells (curve E)

Kd [1]: 0.033 nM
Kd [2]: 0.03 nM
Substance: Recombinant human leukemia inhibitory factor (LIF) (from UniProt P15018) (ligand)
